Molecular target: TALEN T3 pair (T3L/T3R) (artificial) (UniProt Q56830+Q56830)
Assay: cell_activity
Conditions: CD34+ cells

| Substance | activity (mock 0.03%, p<0.0001, off-target) | activity (mock 0.02%, p=0.0015, not significant in K562 or CD4+) |
| --- | --- | --- |
| CNOT10 off-target locus | 0.25 % indels |  |
| FAM5C off-target locus |  | 0.05 % indels |

Reference: US20200392459
